Our source for the Kd values is article PMC10786891, “Massively parallel profiling of RNA-targeting CRISPR-Cas13d”.

Where a chain is given by its changes, count along the chain named. In names and notes the source's numbering stands.

First the molecules themselves.
T1: EsCas13d, nuclease-dead (Eubacterium siraeum, UniProt B0MS50, R295A;H300A;R849A;H854A)
T1 sequence: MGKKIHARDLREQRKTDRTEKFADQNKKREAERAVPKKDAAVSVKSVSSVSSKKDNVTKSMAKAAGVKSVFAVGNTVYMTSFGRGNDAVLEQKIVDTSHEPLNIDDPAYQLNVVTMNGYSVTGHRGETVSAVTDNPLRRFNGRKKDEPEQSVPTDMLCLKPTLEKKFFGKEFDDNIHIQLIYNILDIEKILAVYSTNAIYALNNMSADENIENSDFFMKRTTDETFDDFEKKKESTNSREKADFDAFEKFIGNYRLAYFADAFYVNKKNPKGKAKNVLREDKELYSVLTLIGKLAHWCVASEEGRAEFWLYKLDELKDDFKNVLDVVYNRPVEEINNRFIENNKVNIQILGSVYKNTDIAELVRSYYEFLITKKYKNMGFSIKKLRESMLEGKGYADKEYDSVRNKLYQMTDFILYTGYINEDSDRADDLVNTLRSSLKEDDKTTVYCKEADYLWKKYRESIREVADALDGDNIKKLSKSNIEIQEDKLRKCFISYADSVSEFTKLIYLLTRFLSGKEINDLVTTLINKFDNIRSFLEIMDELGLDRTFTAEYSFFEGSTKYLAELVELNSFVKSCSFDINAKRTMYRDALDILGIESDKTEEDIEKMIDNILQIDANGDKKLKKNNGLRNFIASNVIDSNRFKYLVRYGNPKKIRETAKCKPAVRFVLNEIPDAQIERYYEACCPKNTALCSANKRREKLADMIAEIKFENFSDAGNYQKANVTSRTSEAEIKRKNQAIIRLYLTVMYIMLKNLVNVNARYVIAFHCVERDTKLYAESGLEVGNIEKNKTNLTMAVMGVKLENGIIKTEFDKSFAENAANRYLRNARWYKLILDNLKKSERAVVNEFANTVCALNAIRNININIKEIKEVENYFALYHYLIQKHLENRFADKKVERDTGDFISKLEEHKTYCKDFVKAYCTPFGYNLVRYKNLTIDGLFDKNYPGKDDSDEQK

B1: target 2 MT 5'PFS GCA 3'PFS AAU (mixed)
RNA 1: CACCCGUGCAAAAUUGCAGGGGUCUAAAACCUUCUCCAAAUUGUUUCAUCCU
RNA 2: GGGAAUGGAUCCACAUCUACGAAUUCGCAAGGAUGAAACAAUUUGGAGAAGAAUAGAUCGGAAGAGCACACGU
B2: target 2 MT 5'PFS CUG 3'PFS ACG (mixed)
RNA 1: B1 RNA 1
RNA 2: B1 RNA 2 with G27C, C28U, A29G, A53C, U54G
B3: target 2 MT 5'PFS ACU 3'PFS AAA (mixed)
RNA 1: B1 RNA 1
RNA 2: B1 RNA 2 with G27A, A29U, U54A
B4: target 2 MT 5'PFS GCG 3'PFS AGC (mixed)
RNA 1: B1 RNA 1
RNA 2: B1 RNA 2 with A29G, A53G, U54C
B5: target 2 MT 5'PFS CUC 3'PFS CUC (mixed)
RNA 1: B1 RNA 1
RNA 2: B1 RNA 2 with G27C, C28U, A29C, A52C, A53U, U54C
B6: target 2 MT 5'PFS CUC 3'PFS CUG (mixed)
RNA 1: B1 RNA 1
RNA 2: B1 RNA 2 with G27C, C28U, A29C, A52C, A53U, U54G
B7: target 2 MT 5'PFS CUG 3'PFS ACC (mixed)
RNA 1: B1 RNA 1
RNA 2: B1 RNA 2 with G27C, C28U, A29G, A53C, U54C
B8: target 2 MT 5'PFS CUG 3'PFS ACU (mixed)
RNA 1: B1 RNA 1
RNA 2: B1 RNA 2 with G27C, C28U, A29G, A53C
B9: target 2 MT 5'PFS GCG 3'PFS AGA (mixed)
RNA 1: B1 RNA 1
RNA 2: B1 RNA 2 with A29G, A53G, U54A
B10: target 2 MT 5'PFS UCG 3'PFS CAC (mixed)
RNA 1: B1 RNA 1
RNA 2: B1 RNA 2 with G27U, A29G, A52C, U54C
B11: target 2 MT 5'PFS GCG 3'PFS AGU (mixed)
RNA 1: B1 RNA 1
RNA 2: B1 RNA 2 with A29G, A53G
B12: target 2 MT 5'PFS GUG 3'PFS UGU (mixed)
RNA 1: B1 RNA 1
RNA 2: B1 RNA 2 with C28U, A29G, A52U, A53G
B13: target 2 MT 5'PFS CUG 3'PFS ACA (mixed)
RNA 1: B1 RNA 1
RNA 2: B1 RNA 2 with G27C, C28U, A29G, A53C, U54A
B14: target 2 MT 5'PFS GCA 3'PFS AAA (mixed)
RNA 1: B1 RNA 1
RNA 2: B1 RNA 2 with U54A
B15: target 2 MT 5'PFS GCG 3'PFS AGG (mixed)
RNA 1: B1 RNA 1
RNA 2: B1 RNA 2 with A29G, A53G, U54G
B16: target 2 MT 5'PFS CGC 3'PFS ACC (mixed)
RNA 1: B1 RNA 1
RNA 2: B1 RNA 2 with G27C, C28G, A29C, A53C, U54C
B17: target 2 MT 5'PFS ACU 3'PFS AAC (mixed)
RNA 1: B1 RNA 1
RNA 2: B1 RNA 2 with G27A, A29U, U54C
B18: target 2 MT 5'PFS CGC 3'PFS ACG (mixed)
RNA 1: B1 RNA 1
RNA 2: B1 RNA 2 with G27C, C28G, A29C, A53C, U54G
B19: target 2 MT 5'PFS ACU 3'PFS AAU (mixed)
RNA 1: B1 RNA 1
RNA 2: B1 RNA 2 with G27A, A29U
B20: target 2 MT 5'PFS ACG 3'PFS CAG (mixed)
RNA 1: B1 RNA 1
RNA 2: B1 RNA 2 with G27A, A29G, A52C, U54G
B21: target 2 MT 5'PFS CUC 3'PFS CUA (mixed)
RNA 1: B1 RNA 1
RNA 2: B1 RNA 2 with G27C, C28U, A29C, A52C, A53U, U54A
B22: target 2 MT 5'PFS GCA 3'PFS AAG (mixed)
RNA 1: B1 RNA 1
RNA 2: B1 RNA 2 with U54G
B23: target 2 MT 5'PFS ACG 3'PFS CAC (mixed)
RNA 1: B1 RNA 1
RNA 2: B1 RNA 2 with G27A, A29G, A52C, U54C
B24: target 2 MT 5'PFS ACU 3'PFS AAG (mixed)
RNA 1: B1 RNA 1
RNA 2: B1 RNA 2 with G27A, A29U, U54G
B25: target 2 MT 5'PFS CGC 3'PFS ACA (mixed)
RNA 1: B1 RNA 1
RNA 2: B1 RNA 2 with G27C, C28G, A29C, A53C, U54A
B26: target 2 MT 5'PFS CGC 3'PFS ACU (mixed)
RNA 1: B1 RNA 1
RNA 2: B1 RNA 2 with G27C, C28G, A29C, A53C
B27: target 2 MT 5'PFS UCG 3'PFS ACG (mixed)
RNA 1: B1 RNA 1
RNA 2: B1 RNA 2 with G27U, A29G, A53C, U54G
B28: target 2 MT 5'PFS GAU 3'PFS AGU (mixed)
RNA 1: B1 RNA 1
RNA 2: B1 RNA 2 with C28A, A29U, A53G
B29: target 2 MT 5'PFS GCA 3'PFS AAC (mixed)
RNA 1: B1 RNA 1
RNA 2: B1 RNA 2 with U54C
B30: target 2 MT 5'PFS UCG 3'PFS CAA (mixed)
RNA 1: B1 RNA 1
RNA 2: B1 RNA 2 with G27U, A29G, A52C, U54A
B31: target 2 MT 5'PFS ACG 3'PFS CAU (mixed)
RNA 1: B1 RNA 1
RNA 2: B1 RNA 2 with G27A, A29G, A52C
B32: target 1 A9U,G13U (mixed)
RNA 1: CACCCGUGCAAAAAUGCAGGGGUCUAAAACUGAGCGGAUAACCUCUCUAUGG
RNA 2: GGGAAUGGAUCCACAUCUACGAAUUCGUACCAUAGAGAUGUUUUCCGCUCACCGAGAUCGGAAGAGCACACGU
B33: target 1 insG 3' of 16,insU 3' of 12 (mixed)
RNA 1: B32 RNA 1
RNA 2: GGGAAUGGAUCCACAUCUACGAAUUCGUACCAUAGAGGAGGUUUAUCCGCUCACCGAGAUCGGAAGAGCACACGU
B34: target 1 G13C,A14C (mixed)
RNA 1: B32 RNA 1
RNA 2: B32 RNA 2 with A38C, U39C, U43A
B35: target 1 insA 3' of 2,insG 3' of 2 (mixed)
RNA 1: B32 RNA 1
RNA 2: GGGAAUGGAUCCACAUCUACGAAUUCGUACCAUAGAGAGGUUAUCCGCUCAGACCGAGAUCGGAAGAGCACACGU

The data set has as its target T1, EsCas13d, nuclease-dead. Briefly: crRNA (strand 1, pre-loaded); Mg2+; 40 mM Tris-HCl pH 7.5, 150 mM NaCl, 6 mM MgCl2, 1 mM DTT, 0.1% Tween-20, 0.2 mg/ml BSA; 25 C; 10 min per concentration, then washed. The settings on record: tags: His6-TwinStrep-SUMO cleaved; N-terminal SNAP kept (SNAP-Surface 488); label: 3' end held by stalled T7 RNA polymerase.
Regarding B1, binding was characterised by a dissociation constant (Kd) of 10 ± 1.9 nM.
Consider B2, for which the Kd (as a rule, the equilibrium constant for the complex coming apart) came out at 2.89 ± 0.25 nM.
The same measure for B3: 4.7 ± 1.7 nM; for B4: 9.7 ± 1.6 nM; for B5: 3.1 ± 0.6 nM.
B6 gave a Kd of 4.4 ± 1.5 nM.
Under B7 stands 5.6 ± 1.2 nM; under B8, 4.5 ± 0.8 nM.
The same measure for B9: 7.6 ± 1 nM.
The same measure for B10: 27 ± 8 nM; for B11: 11.6 ± 2.1 nM.
The molecule B12 gave a Kd of 27 ± 2.4 nM.
Under B13 stands 3.9 ± 0.5 nM; under B14, 6.5 ± 2 nM.
Under B15 stands 16.2 ± 2.8 nM.
As for B16, binding was put at a Kd of 18 ± 4 nM.
As for B17, binding was put at a Kd of 5.7 ± 0.8 nM.
B18 returned a Kd of 5.2 ± 0.7 nM.
On to B19, for which the affinity, expressed as Kd, was 4.1 ± 0.5 nM.
As to B20, the dissociation constant (Kd) came out at 7.7 ± 1.4 nM.
Under B21 stands 2.02 ± 0.29 nM; under B22, 7.8 ± 1.2 nM.
Under B23 stands 5.7 ± 1.2 nM; under B24, 3.7 ± 0.5 nM; under B25, 11 ± 5 nM.
For B26, the Kd stood at 6 ± 0.8 nM.
On to B27, for which the Kd stood at 45 ± 9 nM.
B28: binding was characterised by a dissociation constant (Kd) of 12.3 ± 2 nM.
The same measure for B29: 11.9 ± 3.3 nM; for B30: 10.7 ± 1.9 nM.
B31: the affinity, expressed as Kd, was 5.5 ± 0.6 nM.
The molecule B32 displayed a Kd of 53 ± 8 nM.
The same measure for B33: 12.3 ± 0.9 nM; for B34: 50 ± 9 nM.
The same measure for B35: 10.5 ± 1.2 nM.
